Data as given in article PMC7492729, “CsrA-Mediated Translational Activation of ymdA Expression in Escherichia coli”.

Key:
Settings in all cases: protein: recombinant; tags: His6 (C-terminal, as named CsrA-H6); chain copies: 2; label: 5'-32P
CsrA-H6 [1] = target: T1, CsrA-H6 (Escherichia coli, UniProt P69913 1-61); test: EMSA; 10 mM MgCl2, 40 ng yeast tRNA; 10 mM Tris-HCl pH 7.5, 10 mM MgCl2, 100 mM KCl, 40 ng yeast tRNA per 10 ul, 7.5% glycerol, 0.1 mg/ml xylene cyanol, 0.1 nM RNA (2 nM RNA plus 1 ug acetylated BSA for footprint), 37 C 30 min
T1 sequence (P69913 whole entry): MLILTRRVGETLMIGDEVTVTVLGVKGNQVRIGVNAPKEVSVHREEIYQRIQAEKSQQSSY

CsrA-H6 [2] = target: T1, CsrA-H6; test: RNase T1 footprinting; 10 mM MgCl2; BS1 and BS2 protected, BS* and SD GGA not; 10 mM Tris-HCl pH 7.5, 10 mM MgCl2, 100 mM KCl, 40 ng yeast tRNA per 10 ul, 7.5% glycerol, 0.1 mg/ml xylene cyanol, 0.1 nM RNA (2 nM RNA plus 1 ug acetylated BSA for footprint), 37 C 30 min
CsrA-H6 [3] = target: T1, CsrA-H6; test: RNase T1 footprinting; 10 mM MgCl2; binds BS1 in absence of BS2; 10 mM Tris-HCl pH 7.5, 10 mM MgCl2, 100 mM KCl, 40 ng yeast tRNA per 10 ul, 7.5% glycerol, 0.1 mg/ml xylene cyanol, 0.1 nM RNA (2 nM RNA plus 1 ug acetylated BSA for footprint), 37 C 30 min

B1: ymdA leader RNA (EMSA) (structured_RNA)
RNA: AAGAUGAAUCUGGAGAGAAUGGUCUGCUGCGAAUCAGCCAACCUGAAAGUAUGGAUAACACAACCCUCAAGGAUGACUAAUCAUUGAGGAAAUAGAAUAAA
Kd (CsrA-H6 [1]): 48 ± 3 nM

B2: ymdA leader RNA (footprint) (structured_RNA)
RNA: GUCUUAAUUUGUUGAAAUAUCGAGCAUAAGAUGAAUCUGGAGAGAAUGGUCUGCUGCGAAUCAGCCAACCUGAAAGUAUGGAUAACACAACCCUCAAGGAUGACUAAUCAUUGAGGAAAUAGAAUAAA
binding result (CsrA-H6 [2]): binds

B3: ymdA leader RNA BS2 mutant (footprint) (structured_RNA)
RNA: GUCUUAAUUUGUUGAAAUAUCGAGCAUAAGAUGAAUCUGGAGAGAAUGGUCUGCUGCGAAUCAGCCAACCUGAAAGUAUGGAUAACACAACCCUCAAAGAUGACUAAUCAUUGAGGAAAUAGAAUAAA
binding result (CsrA-H6 [3]): binds
